Measured values reported in the supplement of paper PMC5998384.

Tests used:
HeLa Kyoto [1] = experiment: thermal stability score vs G1/S (z-score of summed log2 fold changes over temperatures); higher = more thermally stable than in G1/S
HeLa Kyoto [2] = experiment: melting temperature (median over replicates), in situ; higher = more thermally stable
HeLa Kyoto [3] = experiment: solubility in G1/S (NP-40 vs SDS abundance) (log2 ratio); higher = more soluble; conditions: cell cycle stage: G1/S
HeLa Kyoto [4] = experiment: solubility change mitosis vs G1/S (difference of NP-40 vs SDS log2 ratios) (log2 ratio difference); higher = more soluble in mitosis
[5] = cell cycle stage: early G1 (4.5 h after nocodazole release)
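Throughout, for melting temperature (median over replicates), in situ: HeLa Kyoto cells synchronized by double thymidine or nocodazole block, proteins quantified by TMT10plex mass spectrometry, three independent biological replicates.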
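Throughout, for solubility change mitosis vs G1/S (difference of NP-40 vs SDS log2 ratios): synchronized HeLa Kyoto cells (double thymidine block for G1/S, nocodazole release for mitosis), protein amounts in NP-40 versus SDS lysates quantified by mass spectrometry, three biological replicates.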
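Throughout, for solubility in G1/S (NP-40 vs SDS abundance): HeLa Kyoto cells arrested at G1/S by double thymidine block, proteins quantified by TMT10plex mass spectrometry in mild NP-40 versus SDS extracts, three biological replicates.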
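Throughout, for thermal stability score vs G1/S (z-score of summed log2 fold changes over temperatures): synchronized HeLa Kyoto cells, proteins quantified by TMT10plex mass spectrometry, three biological replicates, mitosis taken 0.5 h after nocodazole release, G1/S directly after double thymidine block.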

Substance | thermal stability score (HeLa Kyoto [1]; [5]) | thermal stability score (HeLa Kyoto [1]; cell cycle stage: mitosis) | melting temperature (HeLa Kyoto [2]; cell cycle stage: G1/S) | melting temperature (HeLa Kyoto [2]; cell cycle stage: mitosis) | solubility in G1/S (log2) (HeLa Kyoto [3]) | solubility change mitosis (log2) (HeLa Kyoto [4])
MSEADGLRQRRPLRPQVVTDDDGQAPEAKDGSSFSGRVFRVTFLMLAVSLTVPLLGAMMLLESPIDPQPLSFKEPPLLLGVLHPNTKLRQAERLFENQLVGPESIAHIGDVMFTGTADGRVVKLENGEIETIARFGSGPCKTRDDEPVCGRPLGIRAGPNGTLFVADAYKGLFEVNPWKREVKLLLSSETPIEGKNMSFVNDLTVTQDGRKIYFTDSSSKWQRRDYLLLVMEGTDDGRLLEYDTVTREVKVLLDQLRFPNGVQLSPAEDFVLVAETTMARIRRVYVSGLMKGGADLFVENMPGFPDNIRPSSSGGYWVGMSTIRPNPGFSMLDFLSERPWIKRMIFKLFSQETVMKFVPRYSLVLELSDSGAFRRSLHDPDGLVATYISEVHEHDGHLYLGSFRSPFLCRLSLQAV [APMAP] | 0.325 | 0.806 | 56.2 °C | 57.2 °C | 0.164 | -0.116
FOCAD | -1.09 | -1.91 | 52.9 °C | 52.4 °C | -0.471 | -0.121
MAPPSVFAEVPQAQPVLVFKLTADFREDPDPRKVNLGVGAYRTDDCHPWVLPVVKKVEQKIANDNSLNHEYLPILGLAEFRSCASRLALGDDSPALKEKRVGGVQSLGGTGALRIGADFLARWYNGTNNKNTPVYVSSPTWENHNAVFSAAGFKDIRSYRYWDAEKRGLDLQGFLNDLENAPEFSIVVLHACAHNPTGIDPTPEQWKQIASVMKHRFLFPFFDSAYQGFASGNLERDAWAIRYFVSEGFEFFCAQSFSKNFGLYNERVGNLTVVGKEPESILQVLSQMEKIVRITWSNPPAQGARIVASTLSNPELFEEWTGNVKTMADRILTMRSELRARLEALKTPGTWNHITDQIGMFSFTGLNPKQVEYLVNEKHIYLLPSGRINVSGLTTKNLDYVATSIHEAVTKIQ [GOT1] | -1.19 | -1.58 | 58.1 °C | 64.1 °C | 0.34 | -0.116
KDM5C | 0.484 | 0.572 | 49.3 °C | 50 °C | -0.0935 | -0.075
MTDSKYFTTNKKGEIFELKAELNNEKKEKRKEAVKKVIAAMTVGKDVSSLFPDVVNCMQTDNLELKKLVYLYLMNYAKSQPDMAIMAVNSFVKDCEDPNPLIRALAVRTMGCIRVDKITEYLCEPLRKCLKDEDPYVRKTAAVCVAKLHDINAQMVEDQGFLDSLRDLIADSNPMVVANAVAALSEISESHPNSNLLDLNPQNINKLLTALNECTEWGQIFILDCLSNYNPKDDREAQSICERVTPRLSHANSAVVLSAVKVLMKFLELLPKDSDYYNMLLKKLAPPLVTLLSGEPEVQYVALRNINLIVQKRPEILKQEIKVFFVKYNDPIYVKLEKLDIMIRLASQANIAQVLAELKEYATEVDVDFVRKAVRAIGRCAIKVEQSAERCVSTLLDLIQTKVNYVVQEAIVVIRDIFRKYPNKYESIIATLCENLDSLDEPDARAAMIWIVGEYAERIDNADELLESFLEGFHDESTQVQLTLLTAIVKLFLKKPSETQELVQQVLSLATQDSDNPDLRDRGYIYWRLLSTDPVTAKEVVLSEKPLISEETDLIEPTLLDELICHIGSLASVYHKPPNAFVEGSHGIHRKHLPIHHGSTDAGDSPVGTTTATNLEQPQVIPSQGDLLGDLLNLDLGPPVNVPQVSSMQMGAVDLLGGGLDSLVGQSFIPSSVPATFAPSPTPAVVSSGLNDLFELSTGIGMAPGGYVAPKAVWLPAVKAKGLEISGTFTHRQGHIYMEMNFTNKALQHMTDFAIQFNKNSFGVIPSTPLAIHTPLMPNQSIDVSLPLNTLGPVMKMEPLNNLQVAVKNNIDVFYFSCLIPLNVLFVEDGKMERQVFLATWKDIPNENELQFQIKECHLNADTVSSKLQNNNVYTIAKRNVEGQDMLYQSLKLTNGIWILAELRIQPGNPNYTLSLKCRAPEVSQYIYQVYDSILKN [AP2B1] | -1.91 | 3.3 | 51.6 °C | 52 °C | 0.198 | -0.0379
MDVLAEANGTFALNLLKTLGKDNSKNVFFSPMSMSCALAMVYMGAKGNTAAQMAQILSFNKSGGGGDIHQGFQSLLTEVNKTGTQYLLRMANRLFGEKSCDFLSSFRDSCQKFYQAEMEELDFISAVEKSRKHINTWVAEKTEGKIAELLSPGSVDPLTRLVLVNAVYFRGNWDEQFDKENTEERLFKVSKNEEKPVQMMFKQSTFKKTYIGEIFTQILVLPYVGKELNMIIMLPDETTDLRTVEKELTYEKFVEWTRLDMMDEEEVEVSLPRFKLEESYDMESVLRNLGMTDAFELGKADFSGMSQTDLSLSKVVHKSFVEVNEEGTEAAAATAAIMMMRCARFVPRFCADHPFLFFIQHSKTNGILFCGRFSSP [SERPINB6] | -1.49 | -2.35 | 55.8 °C | 56.1 °C | 0.174 | -0.136
